Series [1] addresses T1, EGFR (Homo sapiens, UniProt P00533). The series is described as follows: Kinetic evaluation of peptide substrates, varying peptide at fixed ATP (phosphocellulose filter, [γ-33P]ATP). Particulars: ATP concentration >10 × Km (200 μM ATP); for Kcat: varying peptide, 10 minutes at 23° C.; for Km: Km for peptide. It is filed as biochemical. As for the experimental part:
Peptide sequences identified as preferred substrates for ErbB-2 using the methods described in Laboratory Example 3 were synthesized. The kcat and Km values for each peptide were determined as follows, using the kinases ErbB-2, ErbB-4, and EGFR.
Reactions were performed in 96-well polystyrene round bottom plates in a final volume of 45 μL. Reaction mixtures contained 50 mM MOPS, pH 7.5, 10 mM MnCl2, 1 mM dithiothreitol (DTT), 200 μM ATP, 1.0 μCi [γ-^33P] ATP, and varying concentrations of peptide. The reaction was initiated by adding the purified kinase of interest and halted after 10 minutes at 23° C. (room temperature) by adding 45 μL of 0.5% phosphoric acid in water. A 75 μL aliquot of the halted reaction mixture was then transferred to MAPH phosphocellulose filter plates (Millipore, Bedford, Mass.). The plates were filtered three times with 0.2 mL of 0.5 percent phosphoric acid. Scintillation cocktail (50 μL) was added to each well, and the plate was analyzed by counting in a Packard TOPCOUNT® scintillation counter (Packard Instrument Co., Meriden, Conn.). In these assays, the concentration of ATP was greater than ten-fold higher than the Km for ATP, which permitted the kinetic data to be treated as a pseudo-first-order reaction with varying peptide concentration. All experiments were performed in quadruplicate and the average value for each data point was analyzed. The Km and Vmax values were calculated by fitting the data to the Henri-Michaelis-Menten equation by non-linear regression using SIGMAPLOT® (SPSS Science, Chicago, Ill.). kcat values were calculated using the Vmax value, and are based on the protein concentration of the enzyme preparation and an estimate of purity determined from an evaluation of a Coomassie Blue stained SDS-polyacrylamide gel.

Series [2] has as its target T1, EGFR. The series can be described thus: Two-substrate kinetic comparison with known substrate, peptide and ATP varied simultaneously. Particulars: peptide and ATP concentrations varied simultaneously, two-substrate fit. Type of series: biochemical. Here is the method:
In a separate experiment, the kinetic parameters of both peptide number 1 shown in Table 2, and a peptide with the sequence Biotin-Ahx-G-G-M-E-D-I-Y-F-E-F-M-G-G-K-K-K-amide (SEQ ID NO: 17), which has been previously identified as an ErbB-2 substrate (Jan et. al., (2000), Biochemistry 39: 9786-803), were determined and compared. In this experiment, both peptide and ATP concentrations were varied, and the resulting data was simultaneously fit to an equation representing a two-substrate enzyme reaction using SIGMAPLOT®. Data was collected using the kinases ErbB-2, ErbB-4, and EGFR. The results of this experiment are shown in Table 3 and indicate that for all three kinases tested, peptide number 1 shown in Table 2 is kinetically at least equivalent (based on kcat/Km values) to the known peptide substrate identified by Jan et al.

Series [3] has as its target T2, Biotin-Ahx-(SEQ ID NO: 14)-amide.
T2 chain: RAHHEEYHFFFAKKK

For series [4], the target named is T3, Biotin-Ahx-G-G-M-E-D-I-Y-F-E-F-M-G-G-K-K-K-amide (SEQ ID NO: 17).
T3 chain: GGMEDIYFEFMGGKKK

Series [5] concerns the target T4, Biotin-Ahx-(SEQ ID NO: 15)-amide.
T4 chain: RAHEEEYHFIFAKKK

Series [6] has as its target T5, Biotin-Ahx-(SEQ ID NO: 16)-amide.
T5 chain: RAHEEEYHFFFAKKK

In series [7] the target is T6, Biotin-Ahx-(SEQ ID NO: 12)-amide.
T6 chain: RAHEEIYHFFFAKKK

For series [8], the target named is T7, Biotin-Ahx-(SEQ ID NO: 13)-amide.
T7 chain: RAHHEIYHFFFAKKK

Here are results for 7 molecules from patent US20030113711A1, “Protein kinase peptide substrate determination using peptide libraries” (priority 2001, published 2003).

Where a SMILES comes first, the peptide text is derived from it. The star is where a group is joined. Biotin = O=C1N[C@H]2[C@H](CS[C@H]2CCCCC(=O)*)N1; Ahx = NCCCCCC(=O)O

By Km is commonly meant the concentration of substrate that gives half-maximal velocity. For the molecule `C[C@H](NC(=O)[C@H](CCCNC(=N)N)NC(=O)CCCCCNC(=O)CCCC[C@@H]1SC[C@@H]2NC(=O)N[C@@H]21)C(=O)N[C@@H](Cc1c[nH]cn1)C(=O)N[C@@H](Cc1c[nH]cn1)C(=O)N[C@@H](CCC(=O)O)C(=O)N[C@@H](CCC(=O)O)C(=O)N[C@@H](Cc1ccc(O)cc1)C(=O)N[C@@H](Cc1c[nH]cn1)C(=O)N[C@@H](Cc1ccccc1)C(=O)N[C@@H](Cc1ccccc1)C(=O)N[C@@H](Cc1ccccc1)C(=O)N[C@@H](C)C(=O)N[C@@H](CCCCN)C(=O)N[C@@H](CCCCN)C(=O)N[C@@H](CCCCN)C(N)=O` [Peptide 3, Biotin-Ahx-(SEQ ID NO: 14)-amide] ({Biotin-Ahx}-RAHHEEYHFFFAKKK-NH2), on EGFR [1], the Kcat was found to be 0.108 s⁻¹ and the Km amounted to 12.2 µM.

Take `C[C@H](NC(=O)[C@H](CCCNC(=N)N)NC(=O)CCCCCNC(=O)CCCC[C@@H]1SC[C@@H]2NC(=O)N[C@@H]21)C(=O)N[C@@H](Cc1c[nH]cn1)C(=O)N[C@@H](CCC(=O)O)C(=O)N[C@@H](CCC(=O)O)C(=O)N[C@@H](CCC(=O)O)C(=O)N[C@@H](Cc1ccc(O)cc1)C(=O)N[C@@H](Cc1c[nH]cn1)C(=O)N[C@@H](Cc1ccccc1)C(=O)N[C@@H](Cc1ccccc1)C(=O)N[C@@H](Cc1ccccc1)C(=O)N[C@@H](C)C(=O)N[C@@H](CCCCN)C(=O)N[C@@H](CCCCN)C(=O)N[C@@H](CCCCN)C(N)=O` [Peptide 5, Biotin-Ahx-(SEQ ID NO: 16)-amide] ({Biotin-Ahx}-RAHEEEYHFFFAKKK-NH2): on EGFR [1], the Kcat came out at 0.04 s⁻¹ and the Michaelis-Menten constant (Km) was determined as 7.5 µM.

`CC[C@H](C)[C@H](NC(=O)[C@H](Cc1ccccc1)NC(=O)[C@H](Cc1c[nH]cn1)NC(=O)[C@H](Cc1ccc(O)cc1)NC(=O)[C@H](CCC(=O)O)NC(=O)[C@H](CCC(=O)O)NC(=O)[C@H](CCC(=O)O)NC(=O)[C@H](Cc1c[nH]cn1)NC(=O)[C@H](C)NC(=O)[C@H](CCCNC(=N)N)NC(=O)CCCCCNC(=O)CCCC[C@@H]1SC[C@@H]2NC(=O)N[C@@H]21)C(=O)N[C@@H](Cc1ccccc1)C(=O)N[C@@H](C)C(=O)N[C@@H](CCCCN)C(=O)N[C@@H](CCCCN)C(=O)N[C@@H](CCCCN)C(N)=O` [Peptide 4, Biotin-Ahx-(SEQ ID NO: 15)-amide] ({Biotin-Ahx}-RAHEEEYHFIFAKKK-NH2): at EGFR [1], the Kcat is 0.0567 s⁻¹ and the Km was 10 µM.

For `CC[C@H](C)[C@H](NC(=O)[C@H](CCC(=O)O)NC(=O)[C@H](Cc1c[nH]cn1)NC(=O)[C@H](Cc1c[nH]cn1)NC(=O)[C@H](C)NC(=O)[C@H](CCCNC(=N)N)NC(=O)CCCCCNC(=O)CCCC[C@@H]1SC[C@@H]2NC(=O)N[C@@H]21)C(=O)N[C@@H](Cc1ccc(O)cc1)C(=O)N[C@@H](Cc1c[nH]cn1)C(=O)N[C@@H](Cc1ccccc1)C(=O)N[C@@H](Cc1ccccc1)C(=O)N[C@@H](Cc1ccccc1)C(=O)N[C@@H](C)C(=O)N[C@@H](CCCCN)C(=O)N[C@@H](CCCCN)C(=O)N[C@@H](CCCCN)C(N)=O` [Peptide 2, Biotin-Ahx-(SEQ ID NO: 13)-amide] ({Biotin-Ahx}-RAHHEIYHFFFAKKK-NH2), on EGFR [1], the Kcat came out at 0.252 s⁻¹ and the Km was 105 µM.

For `CC[C@H](C)[C@H](NC(=O)[C@H](CC(=O)O)NC(=O)[C@H](CCC(=O)O)NC(=O)[C@H](CCSC)NC(=O)CNC(=O)CNC(=O)CCCCCNC(=O)CCCC[C@@H]1SC[C@@H]2NC(=O)N[C@@H]21)C(=O)N[C@@H](Cc1ccc(O)cc1)C(=O)N[C@@H](Cc1ccccc1)C(=O)N[C@@H](CCC(=O)O)C(=O)N[C@@H](Cc1ccccc1)C(=O)N[C@@H](CCSC)C(=O)NCC(=O)NCC(=O)N[C@@H](CCCCN)C(=O)N[C@@H](CCCCN)C(=O)N[C@@H](CCCCN)C(N)=O` [Biotin-Ahx-(SEQ ID NO: 17)-amide, Biotin-Ahx-G-G-M-E-D-I-Y-F-E-F-M-G-G-K-K-K-amide, reference compound] ({Biotin-Ahx}-GGMEDIYFEFMGGKKK-NH2), on EGFR [2], the Kcat turned out to be 0.218 s⁻¹ and the Km is 899 µM.

For `CC[C@H](C)[C@H](NC(=O)[C@H](CCC(=O)O)NC(=O)[C@H](CCC(=O)O)NC(=O)[C@H](Cc1c[nH]cn1)NC(=O)[C@H](C)NC(=O)[C@H](CCCNC(=N)N)NC(=O)CCCCCNC(=O)CCCC[C@@H]1SC[C@@H]2NC(=O)N[C@@H]21)C(=O)N[C@@H](Cc1ccc(O)cc1)C(=O)N[C@@H](Cc1c[nH]cn1)C(=O)N[C@@H](Cc1ccccc1)C(=O)N[C@@H](Cc1ccccc1)C(=O)N[C@@H](Cc1ccccc1)C(=O)N[C@@H](C)C(=O)N[C@@H](CCCCN)C(=O)N[C@@H](CCCCN)C(=O)N[C@@H](CCCCN)C(N)=O` [Peptide 1, Biotin-Ahx-(SEQ ID NO: 12)-amide] ({Biotin-Ahx}-RAHEEIYHFFFAKKK-NH2), the Kcat turned out to be 0.0567 s⁻¹ at EGFR [2] and 0.102 s⁻¹ on EGFR [1]. Further, the values for the Km at EGFR [2] and on EGFR [1] were 128 µM and 8 µM, respectively.

B1: ErbB-4 (protein)
chain: RRKSIKKKRALRRFLETELVEPLTPSGTAPNQAQLRILKETELKRVKVLGSGAFGTVYKGIWVPEGETVKIPVAIKILNETTGPKANVEFMDEALIMASMDHPHLVRLLGVCLSPTIQLVTQLMPHGCLLEYVHEHKDNIGSQLLLNWCVQIAKGMMYLEERRLVHRDLAARNVLVKSPNHVKITDFGLARLLEGDEKEYNADGGKMPIKWMALECIHYRKFTHQSDVWSYGVTIWELMTFGGKPYDGIPTREIPDLLEKGERLPQPPICTIDVYMVMVKCWMIDADSRPKFKELAAEFSRMARDPQRYLVIQGDDRMKLPSPNDSKFFQNLLDEEDLEDMMDAEEYLVPQAFNIPPPIYTSRARIDSNRSEIGHSPPPAYTPMSGNQFVYRDGGFAAEQGVSVPYRAPTSTIPEAPVAQGATAEIFDDSCCNGTLRKPVAPHVQEDSSTQRYSADPTVFAPERSPRGELDEEGYMTPMRDKPKQEYLNPVEENPFVSRRKNGDLQALDNPEYHNASNGPPKAEDEYVNEPLYLNTFANTLGKAEYLKNNILSMPEKAKKAFDNPDYWNHSLPPRSTLQHPDYLQEYSTKYFYKQNGRIRPIVAENPEYLSEFSLKPGTVLPPPPYRHRNTVV
As usually defined, the kcat/Km is the second-order rate constant that governs catalysis at low substrate concentration. What is called kcat is the number of substrate molecules converted per active site and unit of time at saturation. On to B1, for which the Kcat amounted to 0.065 s⁻¹ in series [3]; 0.0217 s⁻¹ in series [5]; 0.015 s⁻¹ in series [6]; 0.0683 s⁻¹ in series [7]; 0.0767 s⁻¹ in series [8]. Also, the Km was 13.6 µM in series [3]; 144 µM in series [4]; 12.5 µM in series [5]; 6 µM in series [6]; 37.6 µM in series [8]. For the same molecule, the kcat/Km is 4670 M⁻¹ s⁻¹ in series [3]; 533 M⁻¹ s⁻¹ in series [4]; 1670 M⁻¹ s⁻¹ in series [5]; 2500 M⁻¹ s⁻¹ in series [6]; 2000 M⁻¹ s⁻¹ in series [8]. Also, the kcat in series [4] came out at 0.0767 s⁻¹; in series [7], 0.105 s⁻¹. Moreover, the “kinetic comparison with the known substrate (SEQ ID NO: 17), based on kcat/Km” value in series [7] is listed as “for all three kinases tested, peptide number 1 shown in Table 2 is kinetically at least equivalent (based on kcat/Km values) to the known peptide substrate identified by Jan et al”.
